In the assay the target is -. Kind of assay: kinetic binding (Ka/Kdis fit).

B1: Ch-15A7.5 (antibody, V domains shown)
VH: EVKLVESGGGLVQPGGSRKLSCAASGFTFSNYGMAWVRQAPGKGPEWVAFISNLAYGINYADTVTGRFTISRENAKNTLYLEMRSLRSEDTAMYYCARGARATGWFAYWGQGTLVTVSA
VL: DIVMTQSQKFMSTSIGDRVSVTCKASQNVDTHVAWYQEKPGQSPKALIYSASYRYSGVPDRFTGSGSGTDFTLTISNVQSEDLADYFCQQYNSYPLTFGGGTKLEIK
By Kd is commonly meant the free concentration of one partner at which half of the binding sites on the other are occupied at equilibrium, for simple one-to-one binding. High values mean a looser complex, low ones a tighter complex. In turn, B1 registered a Kd of 45.9 nM.

(Values after patent publication US20250018053A1 (published 2025).)
